Consider three molecules from paper PMC8035640.

Data set [1] concerns the target LchD^GGDEV-His, soluble cytoplasmic fragment of LchD (Lysobacter enzymogenes OH11). In words: MST.
A further data set addresses T1, PilR-His (Lysobacter enzymogenes OH11, UniProt A0A5P2TY02 1-471).
T1 sequence: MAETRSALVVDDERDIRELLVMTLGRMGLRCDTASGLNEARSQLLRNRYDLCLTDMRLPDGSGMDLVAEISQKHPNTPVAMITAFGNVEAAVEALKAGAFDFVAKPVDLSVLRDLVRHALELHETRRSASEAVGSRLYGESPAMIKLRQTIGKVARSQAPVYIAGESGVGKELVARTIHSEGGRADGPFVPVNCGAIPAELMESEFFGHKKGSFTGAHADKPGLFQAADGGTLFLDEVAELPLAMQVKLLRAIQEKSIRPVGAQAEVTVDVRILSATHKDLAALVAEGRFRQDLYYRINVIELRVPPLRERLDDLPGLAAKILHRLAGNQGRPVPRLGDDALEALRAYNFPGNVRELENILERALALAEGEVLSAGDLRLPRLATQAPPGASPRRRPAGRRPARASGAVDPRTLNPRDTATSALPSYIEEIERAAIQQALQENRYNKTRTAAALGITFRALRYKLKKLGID
Put plainly: EMSA.

B1: Clp-glutathione S-transferase (GST) (natural protein)
chain: MSANPVAPLTALRRTNSPLLPDGATIERFLAHCHRRRYPSRTDVFRPGDPASTLYYVVSGSVSIITEEEDGRELVLGYFGPGEFVGELGLFIESDHREVILRTRSTCELAEIGHERLYDLLLTRLSLDAPKLLYAIGAQISRRLLDTSRKAGRLAFLDVTDRIVRALHDLAKEPEAMSHPQGTQLRVSRQELSRLVGCSREMAGRVLKKLQADGKLHARGKTVVLYGTR
Molecule B1 returned a dissociation constant Kd in data set [1] of 490 nM.

B2: PLchD-2c (dsDNA)
DNA 1: TGACCGGAAGGGGCATGGGGACACCCTGGCGTGGAAGCTGGCGCGGCTGG
DNA 2: CCAGCCGCGCCAGCTTCCACGCCAGGGTGTCCCCATGCCCCTTCCGGTCA
On to B2, for which the binding result in the data set with PilR-His is recorded as “no binding”.

B3: PLchD-2b (dsDNA)
DNA 1: CCTGCACCGGAATGCAGCCCCCTTGGGCTATGCTCGGCACAGCAGACTGG
DNA 2: CCAGTCTGCTGTGCCGAGCATAGCCCAAGGGGGCTGCATTCCGGTGCAGG
For B3, the binding result with PilR-His is recorded as “no binding”.
